“Also recorded” adds a separate entry of the source. Values belong to the molecule of their own block, whether it stands above or below them. Where a SMILES comes first, the peptide text is derived from it.
Columns and labels:
[1] = target: T1, BMPR-2 receptor extra cellular domain (Homo sapiens, UniProt Q13873); assay: Radio-ligand receptor binding assay, competition with 125I-labeled TDF-1 for BMPR-2
T1 construct: immobilized BMPR-2 receptor extra cellular domain (ECD)
T1 sequence (Q13873 27-150 limits assumed): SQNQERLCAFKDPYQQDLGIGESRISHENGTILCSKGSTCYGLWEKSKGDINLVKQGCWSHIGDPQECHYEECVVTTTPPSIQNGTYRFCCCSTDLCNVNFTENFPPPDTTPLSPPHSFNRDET
From the text: (§1) General protocol: These assays are based on competition between ^125I-labeled TDF-1 (BMP-7 or OP-1) and candidate TDFRP compounds or unlabeled TDF-1 for binding to respective receptors (ALK-3, ALK-6 or BMPR-2). In brief, the procedure involves immobilization of receptor on 96 well Removawell plates, blocking the wells with 3% BSA in PBS and subsequently washing the wells. Increasing concentrations of unlabeled TDF-1 or TDFRP compounds or control (unlabeled TDF-1) prepared in binding buffer are then added. Incubate plate for 1 hour at room temperature, and then add a fixed amount of ^125I-labeled TDF-1 (250,000 to 350,000 cpm) to the wells and further incubate in cold (4° C.) for 20 hours. Aspirate the contents of the wells and wash the wells four times with a wash buffer, and count the receptor bound ^125I-labeled TDF-1 in an auto gamma counter. B. HK-2 Cell Culture and Determination of Cytokine Production

[2] = system: IL-6 in HK2 human transformed kidney proximal tubule cells; assay: IL-6 level in HK-2 cell medium after TNF-alpha stimulation (ELISA); assay type: cell-based; conditions: for effect on level of IL-6 in HK2 cell medium: after TNF-alpha inflammatory stimulation, FIG. 6, FIG. 10
Procedure: The immortalized PTEC-derived HK-2 (Human Kidney-2) cells (ATCC number CRL-2190) were grown in serum-free keratinocyte medium (GIBCO number 17005-042) supplemented with epidermal growth factor (EGF: 5 ng/mL) and bovine pituitary extract (40 ug/mL) for 48 hours as described previously (Ryan et al (1994) Kidney International 45:48-57). Cells were transferred to 24-well plates at a density of 3×10^5 cells per well. After 24 hours, cells were incubated with fresh medium containing TNF-alpha (5 ng/mL) for 20 hours. Controls received medium alone. Then cells were washed twice with fresh culture medium and further incubated with culture medium alone (medium control, and TNF control wells) or TDF-1 at three different concentrations (40, 200 or 1000 ng/mL) or TDFRP compounds at three different concentrations (4, 20 or 100 uM) for sixty hours. During incubation, cells were kept in a 5% CO2 humid atmosphere at 37° C. At the end of the incubation, the media were removed and stored frozen until assayed. The concentrations of IL-6 and sICAM-in culture supernatants were measured by specific ELISA.
Dilute the capture antibody to the working concentration in PBS, pH 7.4 without carrier protein. Add 61 uL of stock antibody (360 ug/mL) to 10.939 mL of PBS, gently vertex. Immediately coat a 96 well microplate (Immulon 4 HBX) with 100 uL per well of the diluted capture antibody. Seal the plate and incubate it overnight in cold (4° C.). (PBS: 8.1 mM Na2HPO4, 1.5 mM KH2PO4, 137 mM NaCl, 2.7 mM KCl, pH 7.4, 0.2 um filtered). Next day empty the wells and wash the wells three times, each time using 340 uL of wash buffer per well. (wash buffer: PBS, pH 7.4 containing 0.05% Tween-20).
Prepare blocking buffer, 35 mL per plate. To prepare blocking buffer, add 0.35 grams of BSA and 1.75 grams of sucrose to 35 mL of PBS, pH 7.4, and mix the contents gently. Add 300 uL of blocking buffer to each well and incubate the plate for a minimum of 1 hour at room temperature. Empty the wells and wash wells three times, each time using 340 uL of wash buffer per well.
Prepare a 8 point standard curve using 2-fold serial dilutions in reagent diluent. Dilute stock standard, recombinant IL-6, 70 ng/mL to an initial concentration of 2400 ng/mL in reagent diluent. Then further dilute the standard to a working range, 1200, 600, 300, 150, 75, 37.5, 18.75 and 9.375 ng/mL using reagent diluent. (to prepare reagent diluent, add 0.4 grams of BSA to 40 mL of PBS, pH 7.4 and gently vertex). Also dilute 24 uL of each sample medium (from HK-2 cell cultures) with 376 uL of reagent diluent. Add 100 uL of standard or sample per well, seal the plate and incubate it overnight in cold (4° C.).
Next day, empty the wells and wash wells three times, each time using 340 uL of wash buffer per well. […]

[3] = system: end stage renal failure in a remnant kidney; conditions: rats, administered systemically, remnant kidney (5/6 nephrectomy); cited from earlier work
[4] = system: unilateral ureteral obstruction; conditions: rats, administered systemically, UUO; cited from earlier work
[5] = target: T2, BMPR-1A (ALK3) receptor extra cellular domain (Homo sapiens, UniProt P36894); assay: Radio-ligand receptor binding assay, competition with 125I-labeled TDF-1 for ALK-3; conditions: FIG. 1; cold ligand vs 125I-labeled TDF-1; read-out: ED50, displacing labeled TDF-1 from immobilized BMPR-1A receptor ECD
T2 construct: immobilized BMPR-1A receptor extra cellular domain (ECD)
From the text: as §1

T2 sequence (P36894 24-152 limits assumed, species assumed): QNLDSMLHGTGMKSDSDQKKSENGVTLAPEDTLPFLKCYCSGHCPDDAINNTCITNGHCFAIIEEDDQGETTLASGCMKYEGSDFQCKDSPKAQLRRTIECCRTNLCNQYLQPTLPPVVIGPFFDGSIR

- specific binding to BMPR-2 / inhibition of specific binding of labeled TDF-1 to BMPR-2 receptor ([1]; competitive binding, FIG. 4): specifically binds and does
- EC50 ([2]; HK2 cells, 5 ng/ml TNF-alpha stimulus, FIG. 6, read-out: ED50, lowering of IL-6 level): ~10000 nM
Molecule: CC(C)C[C@H](NC(=O)[C@@H](NC(=O)[C@H](CC(N)=O)NC(=O)[C@H](CO)NC(=O)[C@H](CO)NC(=O)[C@H](CC(=O)O)NC(=O)[C@H](CC(=O)O)NC(=O)[C@H](Cc1ccccc1)NC(=O)[C@H](Cc1ccc(O)cc1)NC(=O)[C@@H](N)CS)C(C)C)C(=O)N[C@@H](CS)C(=O)N[C@@H](CCCCN)C(=O)N[C@@H](CCCCN)C(=O)N[C@@H](Cc1ccc(O)cc1)C(=O)N[C@@H](CCCNC(=N)N)C(=O)N[C@@H](CO)C(=O)O [SEQ ID NO:45, CYFDDSSNVLCKKYRS] (H-CYFDDSSNVLCKKYRS-OH)
- effect on level of IL-6 in HK2 cell medium [2]: reduces the level of cellular inflammation marker IL-6; also recorded: lowers the level of IL-6 in a dose dependent manner

- EC50 ([1]; FIG. 3, read-out: ED50, displacing labeled TDF-1 from immobilized BMPR-2 receptor ECD): 6.3 nM
- EC50 [5]: 6.5 nM
B1: TDF-1: TDF-1 (BMP-7 or OP-1), bone morphogenetic protein-7; unlabeled control ligand in the binding and cell assays (protein)
chain: STGSKQRSQNRSKTPKNQEALRMANVAENSSSDQRQACKKHELYVSFRDLGWQDWIIAPEGYAAYYCEGECAFPLNSYMNATNHAIVQTLVHFINPETVPKPCCAPTQLNAISVLYFDDSSNVILKKYRNMVVRACGCH
- progression of end stage renal failure [3]: halts the progression of end stage renal failure
- prophylaxis in unilateral ureteral obstruction [4]: short term prophylaxis
- effect on level of IL-6 in HK2 cell medium [2]: lowers the level of IL-6 in a dose dependent manner; also recorded: brings the IL-6 level down below the basal level

Source: patent US7482329B2, “Single domain TDF-related compounds and analogs thereof” (Thrasos Therapeutics, priority 2002, dated 2009)
